Where no end group is shown, it is not given here. phosphorothioated ssDNA 20mer = not defined here
Experiments:
[1] = molecular target: T1, acetylated-STAT3 protein (containing amino acids 127-722) (Homo sapiens (Human), UniProt P40763 127-722, acetylated (site not stated for this protein)); assay: ELISA, plate coated with acetylated-STAT3 protein (amino acids 127-722), n=3 (FIG. 20C, 20D)
T1 construct: Coated on the ELISA plate
Excerpt: (§1) FIGS. 20A-20I: Conjugating phosphorothioated DNA oligonucleotides (PS) enables acetyl-STAT3 peptide cell penetration and specific interaction with STAT3 and exportin 7 proteins as well as downregulation of STAT3 activation. FIG. 20A. Phosphorothioated DNA oligonucleotide-modified STAT3 peptides efficiently penetrate human glioma cell line U251 and human colon cancer cell line HCT116, as assessed by flow cytometry. FIG. 20B. Cell penetration of the PS-acetyl-STAT3 peptide and its colocalization with STAT3 protein in U251 cells are shown by confocal microscopy. Scale, 50 μm. FIG. 20C and FIG. 20D. The PS acetyl-STAT3 peptide specifically binds to acetylated STAT3 protein and exportin 7, as assessed by ELISA, in which the plate is coated by an acetylated-STAT3 protein (containing amino acids 127-722), n=3. FIG. 20E and FIG. 20F. The specific interaction between acetyl-STAT3 peptide and STAT3/exportin 7 shown by immunoprecipitation of the FITC-labeled PS-acetyl-STAT3 peptide followed by Western blotting, shown in U251 cells. FIG. 20G. Downregulation of STAT3 phosphorylation, shown in HCT116 tumors by immunoprecipitation/Western blotting. FIG. 20H. […]
(§2) The PS acetyl-STAT3 peptide specifically binds to acetylated STAT3 protein and exportin 7, as assessed by ELISA, in which the plate is coated by an acetylated-STAT3 protein (containing amino acids 127-722), n=3 (FIG. 20C and FIG. 20D). […]

STAT3 protein = molecular target: T2, STAT3 protein (human, UniProt P40763 2-770); assay: immunoprecipitation of the FITC-labeled peptide, Western blotting, U251 cells (FIG. 20E, 20F)
T2 construct: Endogenous STAT3 of human cells (U251, HepG2) or of HCT116 xenograft tumor homogenates
T2 sequence (P40763 2-770 limits assumed): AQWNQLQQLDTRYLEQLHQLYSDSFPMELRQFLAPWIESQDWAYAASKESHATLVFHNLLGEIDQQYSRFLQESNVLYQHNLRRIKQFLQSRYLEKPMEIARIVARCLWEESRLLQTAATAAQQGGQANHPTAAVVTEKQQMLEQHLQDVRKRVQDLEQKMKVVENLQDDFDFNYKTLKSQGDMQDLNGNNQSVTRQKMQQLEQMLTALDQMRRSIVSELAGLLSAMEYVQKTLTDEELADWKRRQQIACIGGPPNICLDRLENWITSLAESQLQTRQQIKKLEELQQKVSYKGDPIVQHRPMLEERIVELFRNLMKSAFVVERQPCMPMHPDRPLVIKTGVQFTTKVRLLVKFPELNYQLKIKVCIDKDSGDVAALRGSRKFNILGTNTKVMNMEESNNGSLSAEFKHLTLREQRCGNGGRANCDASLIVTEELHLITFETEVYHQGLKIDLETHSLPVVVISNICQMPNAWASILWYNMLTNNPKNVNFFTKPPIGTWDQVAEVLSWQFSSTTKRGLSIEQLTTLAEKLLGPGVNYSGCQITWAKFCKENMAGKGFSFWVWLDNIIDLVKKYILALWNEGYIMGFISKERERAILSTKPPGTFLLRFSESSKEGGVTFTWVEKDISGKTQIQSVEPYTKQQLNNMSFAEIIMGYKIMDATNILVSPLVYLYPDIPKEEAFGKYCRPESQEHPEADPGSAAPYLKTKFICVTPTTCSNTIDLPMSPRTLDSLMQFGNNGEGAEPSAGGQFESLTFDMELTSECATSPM
Excerpt: as §1, §2

T1 sequence (P40763 127-722): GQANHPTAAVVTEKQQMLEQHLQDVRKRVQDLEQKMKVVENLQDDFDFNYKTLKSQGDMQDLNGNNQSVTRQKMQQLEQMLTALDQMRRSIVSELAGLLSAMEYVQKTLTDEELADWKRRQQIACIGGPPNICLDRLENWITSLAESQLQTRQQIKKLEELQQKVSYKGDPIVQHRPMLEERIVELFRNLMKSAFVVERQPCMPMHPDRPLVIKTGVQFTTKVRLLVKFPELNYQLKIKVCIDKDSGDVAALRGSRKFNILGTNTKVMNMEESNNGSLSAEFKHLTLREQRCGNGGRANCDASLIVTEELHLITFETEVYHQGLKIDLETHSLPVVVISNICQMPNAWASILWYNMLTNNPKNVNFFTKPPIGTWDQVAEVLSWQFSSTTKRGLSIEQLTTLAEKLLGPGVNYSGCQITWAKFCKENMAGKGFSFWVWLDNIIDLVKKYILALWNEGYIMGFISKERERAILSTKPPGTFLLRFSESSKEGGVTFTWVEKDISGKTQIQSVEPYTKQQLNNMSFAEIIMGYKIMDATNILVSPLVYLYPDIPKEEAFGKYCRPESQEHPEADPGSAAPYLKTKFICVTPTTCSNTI

B1: PS-acetyl-STAT3 peptide (STAT3-acet.K685 peptide elongated at its C-terminus with a phosphorothioated ssDNA 20mer, FITC-labeled) (peptide)
peptide: PDIPKEEAFGK(Ac)YCRPESQEHPC-{hydrazide linker with FITC (Fam dT)-phosphorothioated ssDNA 20mer}
modifications: cysteine pairing not given here; reading uncertain
notes: Peptide-oligonucleotide conjugate; only the peptide part is a polypeptide; The FITC in the linker was used as the tag for precipitation
B1: binds [1]; binds (STAT3 protein).

From patent publication US20210145973A1 (CITY OF HOPE, published 2021)
